Measured values reported in patent publication US20030158387.

Legend:
[1] = tested on: processed human chemokine PHC-1 (HCC-1[9-74])
[2] = tested on: T1, full size human chemokine HCC-1 (residues 1-74)
T1 sequence: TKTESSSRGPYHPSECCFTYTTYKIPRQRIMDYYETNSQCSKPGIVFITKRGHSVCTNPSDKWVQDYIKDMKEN

Row | Substance | proteolytic degradation (tryptic digestion with increased incubation time) [1] | proteolytic cleavage (tryptic digestion, enzyme/substrate-ratio (w/w) 1/100, one hour) [2] | activity of 50 nM PHC-1 after incubation with 10 or 100 IU purified urokinase [1]
1 | trypsin | trypsin generated PHC-1 then degrades PHC-1 into inactive fragments when the incubation time is increased | the 74 residue peptide was in part cleaved into smaller fragments. One cleavage product, the newly identified biologically active peptide PHC-1 | –
2 | urokinase (purified CHOAY urokinase, Sanofi Wintrop; uPA) | – | – | No change of activity was observed after an incubation of 90 min at 37 °C
